According to article PMC11146434, “Mitigation of TDP-43 toxic phenotype by an RGNEF fragment in amyotrophic lateral sclerosis models” (Brain, 2023):
Each block holds one molecule with its values, some of them ahead of it.

B1: His-MBP-RGNEF^1–275 (domain or fragment, human, UniProt Q8N1W1 1-275, looked up)
chain: MELSCSEAPLYGQMMIYAKFDKNVYLPEDAEFYFTYDGSHQRHVMIAERIEDNVLQSSVPGHGLQETVTVSVCLCSEGYSPVTMGSGSVTYVDNMACRLARLLVTQANRLTACSHQTLLTPFALTAGALPALDEELVLALTHLELPLEWTVLGSSSLEVSSHRESLLHLAMRWGLAKLSQFFLCLPGGVQALALPNEEGATPLDLALREGHSKLVEDVTNFQGRWSPSFSRVQLSEEASLHYIHSSETLTLTLNHTAEHLLEADIKLFRKYFWDR
notes: Detailed purification protocol is in the Supplementary Methods; also called His-NF242; NF242 (in the SPR experiments); source: E. coli, purified (Ni-IMAC); not shown: MBP, N-terminal, kept
B2: His-RRM-1 (domain or fragment, human, UniProt Q13148 101-191, looked up)
chain: QKTSDLIVLGLPWKTTEQDLKEYFSTFGEVLMVQVKKDLKTGHSKGFGFVRFTEYETQVKVMSQRHMIDGRWCDCKLPNSKQSQDEPLRSR
notes: source: E. coli, purified (Ni-IMAC)

How the values were obtained:
[1] = target: B1; test: SPR; His-MBP-RGNEF^1–275 amine-coupled on a carboxymethyl dextran chip; TDP-43 fragments as analytes; 1× PBS, 0.1% Tween-20; 22°C
[2] = target: T1, His-GST-TDP-43^wt (human, UniProt Q13148 1-414); test: SPR; His-MBP-RGNEF^1–275 amine-coupled on a carboxymethyl dextran chip (2000 to 8000 µRIU); His-GST-TDP-43^wt as analyte; 20 mM HEPES pH 7.5, 50 mM KCl, 0.5 mM MgCl2, 50 mM NaCl, 0.05% Tween-20; 22°C; conditions: both partners purified
T1 construct: also called full-length wild-type TDP-43 with an N-terminal GST fusion; source: E. coli, purified (Ni-IMAC); not shown: GST, N-terminal, kept
T1 sequence (Q13148 whole entry, the tested form may be a part): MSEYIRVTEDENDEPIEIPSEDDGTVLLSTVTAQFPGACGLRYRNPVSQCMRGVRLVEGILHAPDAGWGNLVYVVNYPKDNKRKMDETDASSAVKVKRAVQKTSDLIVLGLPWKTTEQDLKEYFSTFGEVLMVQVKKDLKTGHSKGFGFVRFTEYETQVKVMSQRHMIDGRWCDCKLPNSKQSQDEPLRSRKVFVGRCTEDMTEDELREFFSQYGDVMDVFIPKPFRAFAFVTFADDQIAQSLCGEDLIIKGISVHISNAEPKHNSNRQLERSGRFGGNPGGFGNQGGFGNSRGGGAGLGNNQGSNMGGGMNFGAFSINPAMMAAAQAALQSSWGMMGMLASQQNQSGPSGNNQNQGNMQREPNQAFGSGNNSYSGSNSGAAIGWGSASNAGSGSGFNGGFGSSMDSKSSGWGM

[3] = target: T2, His-TDP-43 1-269 (human, UniProt Q13148 1-269); test: SPR; competition: 3′-biotinylated RNA oligo on a neutravidin chip; 100 nM His-TDP-43^1–269 pre-incubated 30 min at room temperature with 1 or 10 μM His-MBP-RGNEF^1–275, then injected; 10 mM Tris pH 8.0, 150 mM NaCl, 2 mM MgCl2, 0.05% Tween-20, 1 μM BSA
[4] = target: T2, His-TDP-43 1-269; test: SPR; 100 nM TDP-43 1-269, no NF242; 10 mM Tris pH 8.0, 150 mM NaCl, 2 mM MgCl2, 0.05% Tween-20, 1 uM BSA; 30 min pre-incubation at room temperature; SPR at 22 C (stated for the protein-protein SPR); 80 RIU RNA immobilized; conditions: protein: recombinant; tags: N-terminal 6xHis (pQE30); label: 3' biotin
Target sequence in this assay (Q13148 1-269): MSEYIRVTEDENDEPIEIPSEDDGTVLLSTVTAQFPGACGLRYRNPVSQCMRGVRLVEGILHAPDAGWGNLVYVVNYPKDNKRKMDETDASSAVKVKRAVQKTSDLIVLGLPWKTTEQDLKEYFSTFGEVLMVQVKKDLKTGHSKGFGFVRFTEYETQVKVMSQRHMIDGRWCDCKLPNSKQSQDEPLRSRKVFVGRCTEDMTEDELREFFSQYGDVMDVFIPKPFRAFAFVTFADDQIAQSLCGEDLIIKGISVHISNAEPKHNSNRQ

Kd [1]: 4.11 µM
Molecule: His-TDP-43^1–269 (from UniProt Q13148 1-269) (domain or fragment)

Molecule: B1
Kd [2]: 1.78 µM
percent reduction of the signal of TDP-43 on the RNA chip at 1 μM NF242 [3]: 10%
percent reduction of the signal of TDP-43 on the RNA chip at 10 μM NF242 [3]: 50%

Molecule: B2
binding result ([1]; both partners purified): binds

Molecule: GUGUGUGAAUGAAUAAA (ssRNA) [3'-biotinylated RNA oligo]
binding result [4]: binds
